Experimental data published in patent CN112646036A.

Molecular target: CD23的多肽抗原 (synthetic CD23 peptide antigens of SEQ ID NO:1-3)
Experiment: indirect ELISA; peptide antigens of SEQ ID NO:1-3 on the 96-well plate at varied molar concentrations, antibody at 0.125 μg/mL (about 0.83 nmol/L), HRP goat anti-mouse IgG, OD450; value given at a peptide concentration of 0.56 μmol/L

B1: 365A2D1抗CD23单克隆抗体 (anti-CD23 monoclonal antibody secreted by mouse hybridoma cell line 365A2D1) (antibody, V domains shown)
VH: EVQLQESGGGLVQPKGSLKLSCAASGYTFNTYAMHWVRQAPGKGLEWVARIRSKSNNYEPYYADSVKDRFTISRDDSQSILYLQMNNLKTEDTAMYYCVREYYDAMDYWGQGTSVTVSS
VL: EIVMTQAAPSVSVTPGESVSISCRSSQSLLHSNGNTYLYWFLQRPGQSPHLLISRVSNLASGVPDRFSGSGSGTAFTLRISRVEAEDVGVYYCMQGLEFPWTFGGGTKLEIK
B1 showed a Kd of 700 nM.
